Experimental data from US20250263459A1, “STABILIZED PACAP PEPTIDE” (SENJU PHARMACEUTICAL CO., LTD., priority 2019, published 2025).
Non-standard residues stand in square brackets, D forms with d. Residues, ends and D or L forms follow the SMILES beside them. No end group written: not given here. Ala(1H-tetrazol-5-yl) = N[C@@H](Cc1nnn[nH]1)C(=O)O; Tz = tetrazole-substituted aspartic acid; Aib = CC(C)(N)C(=O)O

T1: PAC1 receptor (UniProt P41586 21-468, limits assumed)
T1 sequence (looked up): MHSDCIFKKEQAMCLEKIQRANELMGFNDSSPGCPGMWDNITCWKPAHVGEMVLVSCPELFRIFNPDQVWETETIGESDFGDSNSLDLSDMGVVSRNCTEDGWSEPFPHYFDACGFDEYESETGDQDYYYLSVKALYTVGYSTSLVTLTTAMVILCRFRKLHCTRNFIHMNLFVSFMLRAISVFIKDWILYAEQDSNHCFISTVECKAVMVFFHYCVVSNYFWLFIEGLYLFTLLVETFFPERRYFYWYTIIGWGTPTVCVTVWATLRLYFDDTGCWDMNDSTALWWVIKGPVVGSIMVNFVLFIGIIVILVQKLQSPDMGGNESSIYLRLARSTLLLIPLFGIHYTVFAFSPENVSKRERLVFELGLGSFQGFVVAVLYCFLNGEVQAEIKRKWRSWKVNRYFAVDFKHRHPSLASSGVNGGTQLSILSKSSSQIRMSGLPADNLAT

T2: VPAC1 receptor (UniProt P32241 31-457, limits assumed)
T2 sequence (looked up): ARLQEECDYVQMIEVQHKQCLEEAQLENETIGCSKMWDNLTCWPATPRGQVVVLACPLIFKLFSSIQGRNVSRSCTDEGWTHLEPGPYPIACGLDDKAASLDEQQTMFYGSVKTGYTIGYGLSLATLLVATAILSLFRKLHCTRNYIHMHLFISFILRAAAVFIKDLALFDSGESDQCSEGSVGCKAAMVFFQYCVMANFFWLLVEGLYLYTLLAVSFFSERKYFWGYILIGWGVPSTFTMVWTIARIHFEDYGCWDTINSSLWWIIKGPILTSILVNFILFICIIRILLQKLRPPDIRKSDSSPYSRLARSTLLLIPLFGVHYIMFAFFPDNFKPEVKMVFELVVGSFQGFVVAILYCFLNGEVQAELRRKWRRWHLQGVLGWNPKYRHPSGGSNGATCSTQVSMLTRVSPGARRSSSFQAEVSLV

B1: Peptide 9 (peptide)
peptide: HSXGIFTXSYSRYRKQMAVKKYLAAV
modifications: tetrazole-substituted aspartic acid (Tz, racemic) at positions 3 and 8; C-terminal amide (NH2)
B2: Peptide 11 (peptide)
peptide: HSXGIFTXSYSRYRKQXAVKKYLAAVL
modifications: sulfoxy-substituted aspartic acid (cya) at positions 3 and 8; norleucine (Nl) at position 17; C-terminal amide (NH2)
B3: Peptide 13 (peptide)
peptide: HSXGIFTXSYSRYRKQXAVKKYLAAVL
modifications: D-form tetrazole-substituted aspartic acid (Tz(D)) at positions 3 and 8; norleucine (Nl) at position 17; C-terminal amide (NH2)
B4: Peptide 14 (peptide)
peptide: HSXGIFTXSYSRYRKQXAVKKYLAAVL
modifications: tetrazole-substituted aspartic acid (Tz) at position 3; D-form tetrazole-substituted aspartic acid (Tz(D)) at position 8; norleucine (Nl) at position 17; C-terminal amide (NH2)
B5: Peptide 17 (peptide)
peptide: HSXGIFTXSYSRYRKQXAVKKYLAAVL
modifications: N-terminal CH3CH2CO; tetrazole-substituted aspartic acid (Tz) at positions 3 and 8; norleucine (Nl) at position 17; C-terminal amide (NH2)
B6: Peptide 16 (peptide)
peptide: HSXGIFTXSYSRYRKQXAVKKYLAAVL
modifications: tetrazole-substituted aspartic acid (Tz) at position 3; tetrazole-substituted glutamic acid (egTz) at position 8; norleucine (Nl) at position 17; C-terminal amide (NH2)
B7: Peptide 27 (peptide)
peptide: HSXGIFAXAYSRYRKQLAVKKYLAAVL
modifications: N-terminal Ac; tetrazole-substituted aspartic acid (Tz) at positions 3 and 8; C-terminal amide (NH2)
B8: Peptide 28 (peptide)
peptide: HSXGIFAXSYSRYRKALAVKKYLAAVL
modifications: N-terminal Ac; tetrazole-substituted aspartic acid (Tz) at positions 3 and 8; C-terminal amide (NH2)
B9: Peptide 24 (peptide)
peptide: HSXGIFAXSYSRYRKQLAVKKYLAAVL
modifications: N-terminal Ac; tetrazole-substituted aspartic acid (Tz) at positions 3 and 8; C-terminal amide (NH2)
B10: Peptide 21 (peptide)
peptide: HSXGIFTXSYSRYRKQXAVKKYLAAVL
modifications: N-terminal (CH3)2CHCH2CO; tetrazole-substituted aspartic acid (Tz) at positions 3 and 8; norleucine (Nl) at position 17; C-terminal amide (NH2)
B11: Peptide 20 (peptide)
peptide: HSXGIFTXSYSRYRKQXAVKKYLAAVL
modifications: not fully specified; N-terminal CH3CH2CH2CH2CO; tetrazole-substituted aspartic acid (Tz) at positions 3 and 8; norleucine (Nl) at position 17; C-terminal amide (NH2)
B12: Peptide 15 (peptide)
peptide: HSXGIFTXSYSRYRKQXAVKKYLAAVL
modifications: D-form tetrazole-substituted aspartic acid (Tz(D)) at position 3; tetrazole-substituted aspartic acid (Tz) at position 8; norleucine (Nl) at position 17; C-terminal amide (NH2)
B13: Peptide 19 (peptide)
peptide: HSXGIFTXSYSRYRKQXAVKKYLAAVL
modifications: N-terminal (CH3)2CHCO; tetrazole-substituted aspartic acid (Tz) at positions 3 and 8; norleucine (Nl) at position 17; C-terminal amide (NH2)
B14: Peptide 23 (peptide)
peptide: HSXGAFTXSYSRYRKQLAVKKYLAAVL
modifications: N-terminal Ac; tetrazole-substituted aspartic acid (Tz) at positions 3 and 8; C-terminal amide (NH2)
B15: Peptide 22 (peptide)
peptide: HSXGIFTXSYSRYRKQXAVKKYLAAVL
modifications: N-terminal Ac (CH3CO); oxadiazolone-substituted aspartic acid (5Oxa) at positions 3 and 8; norleucine (Nl) at position 17; C-terminal amide (NH2)
B16: Peptide 10 (peptide)
peptide: HSXGIFTXSYSRYRKQLAVKKYLAAVL
modifications: sulfoxy-substituted aspartic acid (cya) at positions 3 and 8; C-terminal amide (NH2)
B17: Peptide 18 (peptide)
peptide: HSXGIFTXSYSRYRKQXAVKKYLAAVL
modifications: N-terminal CH3CH2CH2CO; tetrazole-substituted aspartic acid (Tz) at positions 3 and 8; norleucine (Nl) at position 17; C-terminal amide (NH2)
B18: Peptide 29 (peptide)
peptide: HSXGIFAXSYSRYRKQAAVKKYLAAVL
modifications: N-terminal Ac; tetrazole-substituted aspartic acid (Tz) at positions 3 and 8; C-terminal amide (NH2)
B19: Peptide 25 (peptide)
peptide: HAXGIFAXSYSRYRKQLAVKKYLAAVL
modifications: N-terminal Ac; tetrazole-substituted aspartic acid (Tz) at positions 3 and 8; C-terminal amide (NH2)
B20: Peptide 12 (peptide)
peptide: MHSXGIFTXSYSRYRKQLAVKKYLAAVL
modifications: tetrazole-substituted aspartic acid (Tz) at positions 4 and 9 of this 28-residue peptide (positions 3 and 8 of PACAP27); C-terminal amide (NH2)

Key:
[1] = Stability test 1, sample preparation 5: survival rate of peptide in Tris buffer (pH 7.0) after storage, HPLC; type: physicochemical; conditions: 100 μM peptide
Procedure: The peak area value for the peptide in the chromatogram was calculated, and the survival rate (survival rate before correction for water) was calculated using formula (2). The survival rate after correction for water was also calculated from the survival rate before correction for water using formula (3) to take into account the permeability of the container.
The prepared peptide solutions were incubated for 4 weeks or 8 weeks in a 40° C. thermostatic bath, and for one week or 2 weeks in a thermostatic bath at 60° C., to obtain stored samples.
The following gradient time was used only for peptide 30.

PAC1 receptor = target: T1, PAC1 receptor; assay: cell-based or functional assay
VPAC1 receptor = target: T2, VPAC1 receptor; assay: cell-based or functional assay

| Molecule | EC50, cAMP assay (Hit Hunter cAMP, chemiluminescence RLU) (PAC1 receptor) | EC50, cAMP assay (Hit Hunter cAMP, chemiluminescence RLU) (VPAC1 receptor) | further results |
| --- | --- | --- | --- |
| CC[C@H](C)[C@H](NC(=O)CNC(=O)[C@H](Cc1nnn[nH]1)NC(=O)[C@H](C)NC(=O)[C@H](Cc1c[nH]cn1)NC(C)=O)C(=O)N[C@@H](Cc1ccccc1)C(=O)N[C@@H](C)C(=O)N[C@@H](Cc1nnn[nH]1)C(=O)N[C@@H](C)C(=O)N[C@@H](Cc1ccc(O)cc1)C(=O)N[C@@H](CO)C(=O)N[C@@H](CCCNC(=N)N)C(=O)N[C@@H](Cc1ccc(O)cc1)C(=O)N[C@@H](CCCNC(=N)N)C(=O)N[C@@H](CCCCN)C(=O)N[C@@H](C)C(=O)N[C@@H](C)C(=O)N[C@@H](C)C(=O)N[C@H](C(=O)N[C@@H](CCCCN)C(=O)N[C@@H](CCCCN)C(=O)N[C@@H](Cc1ccc(O)cc1)C(=O)N[C@@H](CC(C)C)C(=O)N[C@@H](C)C(=O)N[C@@H](C)C(=O)N[C@H](C(=O)N[C@@H](CC(C)C)C(N)=O)C(C)C)C(C)C [Peptide 30, HATzGI FATzAY SRYRK AAAVK KYLAA VL] (Ac-HA[Ala(1H-tetrazol-5-yl)]GIFA[Ala(1H-tetrazol-5-yl)]AYSRYRKAAAVKKYLAAVL-NH2) |  |  | survival rate after correction for water, 40° C. 4 week ([1]; Tris buffer pH 7.0, 40° C., 4 weeks (Table 13)): 91.5%; survival rate after correction for water, 40° C. 8 week ([1]; Tris buffer pH 7.0, 40° C., 8 weeks (Table 13)): 83.4%; survival rate after correction for water, 60° C. 1 week ([1]; Tris buffer pH 7.0, 60° C., 1 week (Table 13)): 96.7%; survival rate after correction for water, 60° C. 2 week ([1]; Tris buffer pH 7.0, 60° C., 2 weeks (Table 13)): 93.7% |
| Ac-HA[Tz]GIFA[Tz]AYSRYRKAAAVKKYLAAVL-NH2 [Peptide 30] | 2.29 nM | 0.113 nM |  |
| B1 | 0.287 nM | 0.079 nM |  |
| HS[Tz]GIFA[Tz]SY[Aib]RYRKQMAVKKYLAAVL-NH2 (also: Tz racemic) [Peptide 5] | 0.695 nM | 0.078 nM |  |
| HS[Tz]GIFT[Tz]SYSRYRKQMAVKKYLA-NH2 (also: Tz racemic) [Peptide 8] | 0.679 nM | 0.045 nM |  |
| HS[Tz]GIFA[Tz][Aib]YSRYRKQMAVKKYLAAVL-NH2 (also: Tz racemic) [Peptide 4] | 2.36 nM | 0.121 nM |  |
| B2 | 0.911 nM | 0.08 nM |  |
| HS[Tz]GIFA[Tz]SYARYRKQMAVKKYLAAVL-NH2 (also: Tz racemic) [Peptide 2] | 0.61 nM | 0.085 nM |  |
| B3 | 0.738 nM | 0.082 nM |  |
| B4 | 0.857 nM | 0.107 nM |  |
| HS[Tz]GIFT[Tz][Aib]Y[Aib]RYRKQMAVKKYLAAVL-NH2 (also: Tz racemic) [Peptide 7] | 0.319 nM | 0.096 nM |  |
| B5 | 0.398 nM | 0.071 nM |  |
| B6 | 1.62 nM | 0.142 nM |  |
| B7 | 2.53 nM | 0.111 nM |  |
| B8 | 2.12 nM | 0.072 nM |  |
| Ac-HA[Tz]GIFT[Tz]SYSRYRKALAVKKYLAAVL-NH2 [Peptide 26] | 0.209 nM | 0.068 nM |  |
| B9 | 1.26 nM | 0.042 nM |  |
| B10 | 1.13 nM | 0.141 nM |  |
| B11 | 0.574 nM | 0.131 nM |  |
| B12 | 0.079 nM | 0.243 nM |  |
| HS[Tz]GIFA[Tz][Aib]Y[Aib]RYRKQMAVKKYLAAVL-NH2 (also: Tz racemic) [Peptide 6] | 1.17 nM | 0.11 nM |  |
| B13 | 0.256 nM | 0.069 nM |  |
| B14 | 1.15 nM | 0.047 nM |  |
| B15 | 0.376 nM | 0.077 nM |  |
| B16 | 0.447 nM | 0.057 nM |  |
| B17 | 0.189 nM | 0.069 nM |  |
| B18 | 3.28 nM | 0.123 nM |  |
| B19 | 0.693 nM | 0.041 nM |  |
| B20 | 4.28 nM | 0.651 nM |  |
| HS[Ala(1H-tetrazol-5-yl)]GIFA[Ala(1H-tetrazol-5-yl)]AYSRYRKQMAVKKYLAAVL-NH2 (also: Tz racemic at 3 and 8) [Peptide 1] | 1.22 nM | 0.097 nM |  |
